Measurements as given in publication PMC11234212.

What was measured:
[1] = RALY ubiquitination western blot
[2] = western blot of RALY protein
[3] = half-life analysis, western blot, Hep3B and Huh7; details: glycan gained; control: DMSO
[4] = glycan lost, control: RALYKO-WT
[5] = glycan gained, control: untreated / control-transfected cells

B1: RALY: S176A (protein)
parent chain: MSLKLQASNVTNKNDPKSINSRVFIGNLNTALVKKSDVETIFSKYGRVAGCSVHKGYAFVQYSNERHARAAVLGENGRVLAGQTLDINMAGEPKPDRPKGLKRAASAIYSGYIFDYDYYRDDFYDRLFDYRGRLSPVPVPRAVPVKRPRVTVPLVRRVKTNVPVKLFARSTAVTTSSAKIKLKSSELQAIKTELTQIKSNIDALLSRLEQIAAEQKANPDGKKKGDGGGAGGGGGGGGSGGGGSGGGGGGGSSRPPAPQENTTSEAGLPQGEARTRDDGDEEGLLTHSEEELEHSQDTDADDGALQ
Q: Which results are given for B1?
A: other: ubiquitination [1, 4]: increases; degradation_or_half_life (CHX chase, western blot; [4]): decreases

B2: RALY: OE-OGT (protein)
parent chain: MSLKLQASNVTNKNDPKSINSRVFIGNLNTALVKKSDVETIFSKYGRVAGCSVHKGYAFVQYSNERHARAAVLGENGRVLAGQTLDINMAGEPKPDRPKGLKRAASAIYSGYIFDYDYYRDDFYDRLFDYRGRLSPVPVPRAVPVKRPRVTVPLVRRVKTNVPVKLFARSTAVTTSSAKIKLKSSELQAIKTELTQIKSNIDALLSRLEQIAAEQKANPDGKKKGDGGGAGGGGGGGGSGGGGSGGGGGGGSSRPPAPQENTTSEAGLPQGEARTRDDGDEEGLLTHSEEELEHSQDTDADDGALQ
Q: With B2 as the protein, how does the expression_or_secretion [2, 5] read?
A: increases

B3: RALY: TMG or PUG (protein)
parent chain: MSLKLQASNVTNKNDPKSINSRVFIGNLNTALVKKSDVETIFSKYGRVAGCSVHKGYAFVQYSNERHARAAVLGENGRVLAGQTLDINMAGEPKPDRPKGLKRAASAIYSGYIFDYDYYRDDFYDRLFDYRGRLSPVPVPRAVPVKRPRVTVPLVRRVKTNVPVKLFARSTAVTTSSAKIKLKSSELQAIKTELTQIKSNIDALLSRLEQIAAEQKANPDGKKKGDGGGAGGGGGGGGSGGGGSGGGGGGGSSRPPAPQENTTSEAGLPQGEARTRDDGDEEGLLTHSEEELEHSQDTDADDGALQ
Q: With B3 as the protein, how does the degradation_or_half_life (CHX chase, western blot; glycan gained, control: untreated RALYKO-WT) read?
A: increases

B4: RALY: PUG (protein)
parent chain: MSLKLQASNVTNKNDPKSINSRVFIGNLNTALVKKSDVETIFSKYGRVAGCSVHKGYAFVQYSNERHARAAVLGENGRVLAGQTLDINMAGEPKPDRPKGLKRAASAIYSGYIFDYDYYRDDFYDRLFDYRGRLSPVPVPRAVPVKRPRVTVPLVRRVKTNVPVKLFARSTAVTTSSAKIKLKSSELQAIKTELTQIKSNIDALLSRLEQIAAEQKANPDGKKKGDGGGAGGGGGGGGSGGGGSGGGGGGGSSRPPAPQENTTSEAGLPQGEARTRDDGDEEGLLTHSEEELEHSQDTDADDGALQ
Q: What does the source list for B4?
A: degradation_or_half_life, half_life [3]: increases; expression_or_secretion [2, 5]: increases

B5: RALY: TMG (protein)
parent chain: MSLKLQASNVTNKNDPKSINSRVFIGNLNTALVKKSDVETIFSKYGRVAGCSVHKGYAFVQYSNERHARAAVLGENGRVLAGQTLDINMAGEPKPDRPKGLKRAASAIYSGYIFDYDYYRDDFYDRLFDYRGRLSPVPVPRAVPVKRPRVTVPLVRRVKTNVPVKLFARSTAVTTSSAKIKLKSSELQAIKTELTQIKSNIDALLSRLEQIAAEQKANPDGKKKGDGGGAGGGGGGGGSGGGGSGGGGGGGSSRPPAPQENTTSEAGLPQGEARTRDDGDEEGLLTHSEEELEHSQDTDADDGALQ
Q: Which “other: ubiquitination” value ([1]; glycan gained, control: untreated) does the source give for B5 here?
A: decreases

Q: What about the “degradation_or_half_life, half_life” value [3] of the same protein?
A: increases, approximately 40 (Hep3B), 32 (Huh7) vs approximately 16 (Hep3B), 15 (Huh7)

Q: What about the expression_or_secretion ([2]; glycan gained, control: TRIM27-overexpressing cells without TMG) of the same protein?
A: increases

Q: And the expression_or_secretion [2, 5]?
A: increases

B6: RALY: siOGT (protein)
parent chain: MSLKLQASNVTNKNDPKSINSRVFIGNLNTALVKKSDVETIFSKYGRVAGCSVHKGYAFVQYSNERHARAAVLGENGRVLAGQTLDINMAGEPKPDRPKGLKRAASAIYSGYIFDYDYYRDDFYDRLFDYRGRLSPVPVPRAVPVKRPRVTVPLVRRVKTNVPVKLFARSTAVTTSSAKIKLKSSELQAIKTELTQIKSNIDALLSRLEQIAAEQKANPDGKKKGDGGGAGGGGGGGGSGGGGSGGGGGGGSSRPPAPQENTTSEAGLPQGEARTRDDGDEEGLLTHSEEELEHSQDTDADDGALQ
Q: Which expression_or_secretion ([2]; glycan lost, control: untreated / control-transfected cells) does the source give for B6 here?
A: decreases
